In article PMC8809985 (2021) one finds Kd and koff data, which are given here for 1 molecule.

The target of test [1] is T1, recombinant human tumor necrosis factor alpha (human, UniProt P01375 77-233). Nature of the test: BLI.
Test [2] has as its target T1, recombinant human tumor necrosis factor …. The test is described as follows: BLI. This is another data set of the same source.

T1 sequence (P01375 77-233): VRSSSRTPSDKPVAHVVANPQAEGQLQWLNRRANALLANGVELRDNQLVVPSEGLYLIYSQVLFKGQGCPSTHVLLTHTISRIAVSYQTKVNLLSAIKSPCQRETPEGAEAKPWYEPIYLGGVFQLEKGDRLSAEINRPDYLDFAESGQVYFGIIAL

B1: Haidalimumab (antibody, V domains shown)
VH: EVQLVESGGGLVQPGGSLRLSCAASGFPFSNHWMNWVRQAPGKGLEWVGEIRSKSMNSATHYAESVKGRFTISRDDSKNSLYLQMNSLKTEDTAVYYCARNYYGSTYDHWGQGTLVTVSS
VL: EIVLTQSPDFQSVTPKEKVTITCRASQFVGYSIHWYQQKPDQSPKLLIKYASESRSGVPSRFSGSGSGTDFTLTINSLEAEDAATYYCQQSHSWHFTFGQGTKLEIK
Turning to B1, the Kd in test [1] was 0.774 nM. Also, in test [2], the dissociation rate constant (koff) is 0.00023 s⁻¹.
